Values quoted from earlier work in PMC9280966 (ACS Omega, 2022).
pKd: −log10 of the molar value.

Molecular target: RHEB (Homo sapiens, UniProt Q15382)
Settings: read-out: KD with RHEB (BLI); BLI analysis, earlier study; ref [12]

Sequence of RHEB (Q15382 whole entry): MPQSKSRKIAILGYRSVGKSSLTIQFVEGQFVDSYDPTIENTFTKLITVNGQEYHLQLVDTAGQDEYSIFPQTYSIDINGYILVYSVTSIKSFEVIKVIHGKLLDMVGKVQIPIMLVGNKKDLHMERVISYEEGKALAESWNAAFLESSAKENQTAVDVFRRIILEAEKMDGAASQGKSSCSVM

pKd: ~5.19
Substance: mTOR^ΔN: N-heat domain of mTOR (aa 60–167), 6xHis tagged, ∼13 kDa
